In patent US20250043002A1 (Regeneron, published 2025):

What was measured:
[1] = target: T1, human CD28 on cells (endogenous on Jurkat/NFkB-Luc cells; human primary CD4+ T cells) (human, UniProt P10747 19-220); experiment: flow cytometry, Jurkat/NFkB-Luc cells (endogenous CD28)
T1 construct: whole, on cells

[2] = target: T1, human CD28 on cells (endogenous on …); experiment: cell-based or functional assay
[3] = target: human PD-L1 expressed with a C-terminal myc-myc-hexahistidine tag (hPD-L1.mmH) (human); experiment: SPR Biacore 25 C, antibody captured by anti-hFc, hPD-L1.mmH injected
Chain of human PD-L1 expressed with a C-terminal myc-myc-hexahistidine tag (hPD-L1.mmH) (human) (chain, as listed by the source limits assumed): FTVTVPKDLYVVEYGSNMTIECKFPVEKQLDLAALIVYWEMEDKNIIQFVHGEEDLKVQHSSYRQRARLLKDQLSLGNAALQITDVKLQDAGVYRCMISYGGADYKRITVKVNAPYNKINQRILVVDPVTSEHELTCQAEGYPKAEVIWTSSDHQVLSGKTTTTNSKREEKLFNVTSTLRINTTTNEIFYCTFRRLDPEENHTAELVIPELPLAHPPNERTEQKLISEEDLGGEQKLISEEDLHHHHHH

[4] = target: T2, hPD-L1-mFc: hPD-L1 extracellular domain (amino acids F19-T239) expressed with the Fc portion of mouse IgG2a … (human; mouse, UniProt Q9NZQ7 19-239); experiment: blocking ELISA, 0.7 nM hPD-L1-mFc on plate-coated hPD1-hFc
T2 construct: range 19-239; not shown: Fc portion of mouse IgG2a, amino acids E98-K330
T2 sequence (Q9NZQ7 19-239 limits assumed): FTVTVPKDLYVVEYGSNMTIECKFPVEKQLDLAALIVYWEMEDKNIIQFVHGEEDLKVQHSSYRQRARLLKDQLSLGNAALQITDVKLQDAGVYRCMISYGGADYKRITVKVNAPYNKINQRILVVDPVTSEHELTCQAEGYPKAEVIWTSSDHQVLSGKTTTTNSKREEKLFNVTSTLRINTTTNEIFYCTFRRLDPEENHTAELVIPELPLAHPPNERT

[5] = target: T3, human PD-L1 expressed on cells (HEK293/hCD20/hPSMA/hPD-L1; WSU-DLCL2/hPD-L1) (human, UniProt Q9NZQ7 19-290); experiment: flow cytometry, HEK293/hCD20/hPSMA/hPD-L1 cells
T3 construct: whole, on cells; also called human programmed death ligand-1
T3 sequence (Q9NZQ7 19-290): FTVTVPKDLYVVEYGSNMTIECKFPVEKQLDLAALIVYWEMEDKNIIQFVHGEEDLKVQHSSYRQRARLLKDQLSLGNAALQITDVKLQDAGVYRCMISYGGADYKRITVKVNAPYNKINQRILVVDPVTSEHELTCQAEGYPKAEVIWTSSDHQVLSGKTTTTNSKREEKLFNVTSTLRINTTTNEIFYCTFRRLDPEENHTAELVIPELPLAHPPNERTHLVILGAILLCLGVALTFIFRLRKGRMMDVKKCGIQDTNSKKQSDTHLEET

[6] = target: human CD28 expressed with a C-terminal murine Fc tag (hCD28.mFc) (human); experiment: SPR Biacore 25 C, hCD28.mFc captured by anti-mFc, antibody injected
[7] = target: T3, human PD-L1 expressed on cells …; experiment: cell-based or functional assay
[8] = target: T1, human CD28 on cells (endogenous on …); experiment: cell-based or functional assay; remark: listed apart in the source
[9] = target: T1, human CD28 on cells (endogenous on …); experiment: flow cytometry, Jurkat/NFkB-Luc cells (endogenous CD28); EC50 NC

B1: REGN6192 (bispecific antibody, human IgG4 S228P, kappa)
heavy 1: EVQLVESGGGLVQPGRSLRLSCAASGFTFDDYALHWVRQAPGKGLEWVSGISWTGGTIDYADSVKGRFTISRDNAKNSLYLQMSSLRTEDTAIYYCTRDIRGNWKYGGWFDPWGQGTLVTVSSASTKGPSVFPLAPCSRSTSESTAALGCLVKDYFPEPVTVSWNSGALTSGVHTFPAVLQSSGLYSLSSVVTVPSSSLGTKTYTCNVDHKPSNTKVDKRVESKYGPPCPPCPAPPVAGPSVFLFPPKPKDTLMISRTPEVTCVVVDVSQEDPEVQFNWYVDGVEVHNAKTKPREEQFNSTYRVVSVLTVLHQDWLNGKEYKCKVSNKGLPSSIEKTISKAKGQPREPQVYTLPPSQEEMTKNQVSLTCLVKGFYPSDIAVEWESNGQPENNYKTTPPVLDSDGSFFLYSRLTVDKSRWQEGNVFSCSVMHEALHNHYTQKSLSLSLGK
heavy 2: EVQLVESGGGLVQPGGSLRLSCAASGFTFSTYAMTWVRQAPGKGLEWVSFISGSGDNTYYADSVKGRFTISRDNSKNTLYLQMNSLRADDSAIYHCAKDSGYCSSGGCSLYFYYGMDVWGQGTTVTVSSASTKGPSVFPLAPCSRSTSESTAALGCLVKDYFPEPVTVSWNSGALTSGVHTFPAVLQSSGLYSLSSVVTVPSSSLGTKTYTCNVDHKPSNTKVDKRVESKYGPPCPPCPAPPVAGPSVFLFPPKPKDTLMISRTPEVTCVVVDVSQEDPEVQFNWYVDGVEVHNAKTKPREEQFNSTYRVVSVLTVLHQDWLNGKEYKCKVSNKGLPSSIEKTISKAKGQPREPQVYTLPPSQEEMTKNQVSLTCLVKGFYPSDIAVEWESNGQPENNYKTTPPVLDSDGSFFLYSRLTVDKSRWQEGNVFSCSVMHEALHNRFTQKSLSLSPGK
light: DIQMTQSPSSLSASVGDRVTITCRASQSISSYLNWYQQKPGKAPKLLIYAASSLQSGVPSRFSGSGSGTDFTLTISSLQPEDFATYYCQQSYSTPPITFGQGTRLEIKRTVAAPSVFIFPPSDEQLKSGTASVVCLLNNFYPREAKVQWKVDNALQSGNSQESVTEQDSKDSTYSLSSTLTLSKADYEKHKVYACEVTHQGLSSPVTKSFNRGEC
notes: common light chain 1-39; also called PD-L1×CD28; anti-PD-L1 × anti-CD28 bispecific antibody
Fold Change (max MFI over secondary antibody alone) [1]: 24.1 fold
Max gMFI [1]: 10000 gMFI
IL2 release EC50, CD4+ T cells + HEK293/hCD20/hPSMA + CD20×CD3 [2]: 16.4 nM
IL2 release EC50, CD4+ T cells + HEK293/hCD20/hPSMA/hPD-L1 + CD20×CD3 [2]: 0.104 nM
IL2 release MAX (RLU), CD4+ T cells + HEK293/hCD20/hPSMA [2]: 3870 RLU
IL2 release MAX (RLU), CD4+ T cells + HEK293/hCD20/hPSMA + CD20×CD3 [2]: 25200 RLU
IL2 release MAX (RLU), CD4+ T cells + HEK293/hCD20/hPSMA/hPD-L1 [2]: 2690 RLU
IL2 release MAX (RLU), CD4+ T cells + HEK293/hCD20/hPSMA/hPD-L1 + CD20×CD3 [2]: 144000 RLU
30 nM hPD-L1.mmH Bind (RU) [3]: 34.9 RU
Kd [3]: 0.103 nM
koff [3]: 6.18e-05 s⁻¹
kon [3]: 600000 M⁻¹ s⁻¹
t1/2 [3]: 3.11 h
% Blocking at 100 nM mAb [4]: 97%
IC50 [4]: 1.2 nM
EC50 [5]: 2.5 nM
Fold Change (max MFI over secondary antibody alone) [5]: 876 fold
Max gMFI [5]: 1.4e+06 gMFI
90 nM mAb Bind (RU) [6]: 15.4 RU
Kd [6]: 13.2 nM
koff [6]: 0.000342 s⁻¹
kon [6]: 25900 M⁻¹ s⁻¹
t1/2 [6]: 0.563 h
AP-1 luciferase EC50, WSU-DLCL2/hPD-L1 + Jurkat/AP1-Luc/hPD1 [7]: 0.183 nM
AP-1 luciferase MAX (RLU), WSU-DLCL2/hPD-L1 + Jurkat/AP1-Luc/hPD1 [7]: 1.19e+06 RLU
NFkB-luciferase EC50, Jurkat/NFkB-Luc + HEK293/hCD20/hPSMA/hPD-L1 + CD20×CD3 [8]: 0.243 nM
NFkB-luciferase MAX (RLU), Jurkat/NFkB-Luc + HEK293/hCD20/hPSMA [8]: 17200 RLU
NFkB-luciferase MAX (RLU), Jurkat/NFkB-Luc + HEK293/hCD20/hPSMA + CD20×CD3 [8]: 444000 RLU
NFkB-luciferase MAX (RLU), Jurkat/NFkB-Luc + HEK293/hCD20/hPSMA/hPD-L1 [8]: 110000 RLU
NFkB-luciferase MAX (RLU), Jurkat/NFkB-Luc + HEK293/hCD20/hPSMA/hPD-L1 + CD20×CD3 [8]: 2.32e+06 RLU

B2: REGN6193 (bispecific antibody, human IgG4 S228P, kappa)
heavy 1: B1 heavy 1
heavy 2: EVQLVESGGGLVQPGGSLRLSCAASGFTFSRNNMHWVRQAPGKGLEYVSGISSNGGRTYYADSVKGRFTISRDNSKNTLYLQMGGLRAADMAVYFCTRDDELLSFDYWGQGTLVTVSSASTKGPSVFPLAPCSRSTSESTAALGCLVKDYFPEPVTVSWNSGALTSGVHTFPAVLQSSGLYSLSSVVTVPSSSLGTKTYTCNVDHKPSNTKVDKRVESKYGPPCPPCPAPPVAGPSVFLFPPKPKDTLMISRTPEVTCVVVDVSQEDPEVQFNWYVDGVEVHNAKTKPREEQFNSTYRVVSVLTVLHQDWLNGKEYKCKVSNKGLPSSIEKTISKAKGQPREPQVYTLPPSQEEMTKNQVSLTCLVKGFYPSDIAVEWESNGQPENNYKTTPPVLDSDGSFFLYSRLTVDKSRWQEGNVFSCSVMHEALHNRFTQKSLSLSPGK
light: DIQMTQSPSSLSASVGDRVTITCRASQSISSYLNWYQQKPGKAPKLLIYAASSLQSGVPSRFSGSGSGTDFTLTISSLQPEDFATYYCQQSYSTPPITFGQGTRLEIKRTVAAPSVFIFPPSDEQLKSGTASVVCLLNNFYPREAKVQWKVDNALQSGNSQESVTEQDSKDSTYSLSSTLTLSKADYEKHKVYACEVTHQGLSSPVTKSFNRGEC
notes: as for B1
Fold Change (max MFI over secondary antibody alone) [1]: 21.8 fold
Max gMFI [1]: 9200 gMFI
IL2 release EC50, CD4+ T cells + HEK293/hCD20/hPSMA/hPD-L1 + CD20×CD3 [2]: 0.144 nM
IL2 release MAX (RLU), CD4+ T cells + HEK293/hCD20/hPSMA [2]: 4250 RLU
IL2 release MAX (RLU), CD4+ T cells + HEK293/hCD20/hPSMA + CD20×CD3 [2]: 12600 RLU
IL2 release MAX (RLU), CD4+ T cells + HEK293/hCD20/hPSMA/hPD-L1 [2]: 2760 RLU
IL2 release MAX (RLU), CD4+ T cells + HEK293/hCD20/hPSMA/hPD-L1 + CD20×CD3 [2]: 141000 RLU
30 nM hPD-L1.mmH Bind (RU) [3]: 44.2 RU
Kd [3]: 0.116 nM
koff [3]: 6.37e-05 s⁻¹
kon [3]: 548000 M⁻¹ s⁻¹
t1/2 [3]: 3.02 h
% Blocking at 100 nM mAb [4]: 98%
IC50 [4]: 0.82 nM
EC50 [5]: 1.3 nM
Fold Change (max MFI over secondary antibody alone) [5]: 847 fold
Max gMFI [5]: 1.3e+06 gMFI
90 nM mAb Bind (RU) [6]: 21.6 RU
Kd [6]: 46.9 nM
koff [6]: 0.00168 s⁻¹
kon [6]: 35900 M⁻¹ s⁻¹
t1/2 [6]: 0.115 h
AP-1 luciferase EC50, WSU-DLCL2/hPD-L1 + Jurkat/AP1-Luc/hPD1 [7]: 0.202 nM
AP-1 luciferase MAX (RLU), WSU-DLCL2/hPD-L1 + Jurkat/AP1-Luc/hPD1 [7]: 1.49e+06 RLU
NFkB-luciferase EC50, Jurkat/NFkB-Luc + HEK293/hCD20/hPSMA/hPD-L1 + CD20×CD3 [8]: 0.413 nM
NFkB-luciferase MAX (RLU), Jurkat/NFkB-Luc + HEK293/hCD20/hPSMA [8]: 14200 RLU
NFkB-luciferase MAX (RLU), Jurkat/NFkB-Luc + HEK293/hCD20/hPSMA + CD20×CD3 [8]: 217000 RLU
NFkB-luciferase MAX (RLU), Jurkat/NFkB-Luc + HEK293/hCD20/hPSMA/hPD-L1 [8]: 19500 RLU
NFkB-luciferase MAX (RLU), Jurkat/NFkB-Luc + HEK293/hCD20/hPSMA/hPD-L1 + CD20×CD3 [8]: 2.73e+06 RLU

B3: mAb14216 (antibody, V domains shown)
VH: EVQLVESGGGLVQPGGSLRLSCAASGFTFSRNNMHWVRQAPGKGLEYVSGISSNGGRTYYADSVKGRFTISRDNSKNTLYLQMGGLRAADMAVYFCTRDDELLSFDYWGQGTLVTVSS
VL: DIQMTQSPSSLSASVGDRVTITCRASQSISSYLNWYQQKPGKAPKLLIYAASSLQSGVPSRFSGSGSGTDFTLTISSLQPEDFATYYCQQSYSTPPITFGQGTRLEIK
notes: Bivalent parental antibody; also called parental bivalent anti-CD28 antibody; CD28 bivalent control antibody
EC50 [1]: 9.3 nM
Fold Change (max MFI over secondary antibody alone) [1]: 60.3 fold
Max gMFI [1]: 25000 gMFI
IL2 release EC50, CD4+ T cells + HEK293/hCD20/hPSMA + CD20×CD3 [2]: 9.54 nM
IL2 release MAX (RLU), CD4+ T cells + HEK293/hCD20/hPSMA [2]: 3040 RLU
IL2 release MAX (RLU), CD4+ T cells + HEK293/hCD20/hPSMA + CD20×CD3 [2]: 25600 RLU
IL2 release MAX (RLU), CD4+ T cells + HEK293/hCD20/hPSMA/hPD-L1 [2]: 2860 RLU
IL2 release MAX (RLU), CD4+ T cells + HEK293/hCD20/hPSMA/hPD-L1 + CD20×CD3 [2]: 3620 RLU
% Blocking at 100 nM mAb [4]: 1%
Fold Change (max MFI over secondary antibody alone) [5]: 1.2 fold
Max gMFI [5]: 1800 gMFI
binding result [5]: no binding

B4: mAb14193 (antibody, V domains shown)
VH: EVQLVESGGGLVQPGGSLRLSCAASGFTFSTYAMTWVRQAPGKGLEWVSFISGSGDNTYYADSVKGRFTISRDNSKNTLYLQMNSLRADDSAIYHCAKDSGYCSSGGCSLYFYYGMDVWGQGTTVTVSS
VL: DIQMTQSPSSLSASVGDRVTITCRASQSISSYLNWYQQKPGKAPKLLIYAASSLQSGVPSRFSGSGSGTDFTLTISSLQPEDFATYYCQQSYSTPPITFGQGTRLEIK
notes: as for B3
EC50 [1]: 21 nM
Fold Change (max MFI over secondary antibody alone) [1]: 42.5 fold
Max gMFI [1]: 18000 gMFI
IL2 release EC50, CD4+ T cells + HEK293/hCD20/hPSMA + CD20×CD3 [2]: 24.9 nM
IL2 release MAX (RLU), CD4+ T cells + HEK293/hCD20/hPSMA [2]: 3110 RLU
IL2 release MAX (RLU), CD4+ T cells + HEK293/hCD20/hPSMA + CD20×CD3 [2]: 33600 RLU
IL2 release MAX (RLU), CD4+ T cells + HEK293/hCD20/hPSMA/hPD-L1 [2]: 3070 RLU
IL2 release MAX (RLU), CD4+ T cells + HEK293/hCD20/hPSMA/hPD-L1 + CD20×CD3 [2]: 4720 RLU
% Blocking at 100 nM mAb [4]: 6%
Fold Change (max MFI over secondary antibody alone) [5]: 3 fold
Max gMFI [5]: 4700 gMFI
binding result [5]: no binding

B5: mAb9373 (antibody, V domains shown)
VH: QVQLVQSGTEVKKPGASVKVSCKASGYTFTAYYMHWVRQAPGQGLDWMGWISPNSGFTNYAQKFQGRVTMTRDTSINTFYMELSGLRSDDTAVYYCAREGSTHHNSFDPWGQGTLVTVSS
VL: not shown
notes: Bivalent parental antibody; also called parental bivalent anti-PD-L1 antibody; PD-L1 bivalent control antibody
IL2 release MAX (RLU), CD4+ T cells + HEK293/hCD20/hPSMA [2]: 4530 RLU
IL2 release MAX (RLU), CD4+ T cells + HEK293/hCD20/hPSMA + CD20×CD3 [2]: 9080 RLU
IL2 release MAX (RLU), CD4+ T cells + HEK293/hCD20/hPSMA/hPD-L1 [2]: 3640 RLU
IL2 release MAX (RLU), CD4+ T cells + HEK293/hCD20/hPSMA/hPD-L1 + CD20×CD3 [2]: 6960 RLU
Fold Change (max MFI over secondary antibody alone) [9]: 5.2 fold
90 nM mAb Bind (RU) [6]: -1.3 RU
NFkB-luciferase MAX (RLU), Jurkat/NFkB-Luc + HEK293/hCD20/hPSMA [8]: 11000 RLU
NFkB-luciferase MAX (RLU), Jurkat/NFkB-Luc + HEK293/hCD20/hPSMA + CD20×CD3 [8]: 181000 RLU
NFkB-luciferase MAX (RLU), Jurkat/NFkB-Luc + HEK293/hCD20/hPSMA/hPD-L1 [8]: 11100 RLU
NFkB-luciferase MAX (RLU), Jurkat/NFkB-Luc + HEK293/hCD20/hPSMA/hPD-L1 + CD20×CD3 [8]: 155000 RLU
